Assay results published in the Human Domainome abundance scans (Beltran et al. 2025).

B1: Myocardin-related transcription factor A, residues 341 to 383; numbered along this chain, Q969V6 (parent)
chain: GALPANLDDMKVAELKQELKLRSLPVSGTKTELIERLRAYQDQ

Variants of: B1
Assay: abundance fitness (aPCA) (normalised: wild type 0, dead -1); higher = more abundant; growth selection in yeast, the domain comes from the species named
Conditions: Homo sapiens

Abundance fitness of substitutions, site by site:
P4: F -0.263; Q 0.293; L 0.322; G 0.217; C 0.211; Y 0.29; A 0.079; T 0.243; I 0.301; D 0.213; V 0.29; W 0.057; M 0.196; S 0.245; E 0.349; H 0.093; K 0.17; R 0.219
A5: T 0.185; I 0.249; Q -0.025; R 0.064; S -0.107; N 0.215; M 0.292; G 0.081; P -0.845; W -0.655; K 0.109; L 0.045; F -0.012; E 0.216
D8: S -0.124; E 0.261; W 0.185; A 0.19; C 0.176; V 0.048; G 0.183; T -0.129; N -0.009; Q 0.146; M -0.125; R 0.046; K -0.018
K16: R -0.159; P -0.587; S 0.006; M 0.169; L -0.408; H 0.123; D -0.714; Q 0.186; T -0.036; N -0.384; E -0.052; Y -0.131; V -0.143
K11: Y -0.799; Q -0.161; E 0.047; S -0.029; H -0.154; T -0.161; W -0.635; D -0.045; M -0.275; P -0.166; L -0.197; A 0.132; R -0.079; C -0.126; V -0.055; G -0.054; F -0.502
L15: C -0.999; N -0.628; G -0.558; R -0.831; D -0.369; Q -0.662; E -0.604; I 0.119
